The values below come from US20110104715.

In series [1] the target is T1, Full-length APLP1 (APP-like protein 1), P51693.
T1 chain: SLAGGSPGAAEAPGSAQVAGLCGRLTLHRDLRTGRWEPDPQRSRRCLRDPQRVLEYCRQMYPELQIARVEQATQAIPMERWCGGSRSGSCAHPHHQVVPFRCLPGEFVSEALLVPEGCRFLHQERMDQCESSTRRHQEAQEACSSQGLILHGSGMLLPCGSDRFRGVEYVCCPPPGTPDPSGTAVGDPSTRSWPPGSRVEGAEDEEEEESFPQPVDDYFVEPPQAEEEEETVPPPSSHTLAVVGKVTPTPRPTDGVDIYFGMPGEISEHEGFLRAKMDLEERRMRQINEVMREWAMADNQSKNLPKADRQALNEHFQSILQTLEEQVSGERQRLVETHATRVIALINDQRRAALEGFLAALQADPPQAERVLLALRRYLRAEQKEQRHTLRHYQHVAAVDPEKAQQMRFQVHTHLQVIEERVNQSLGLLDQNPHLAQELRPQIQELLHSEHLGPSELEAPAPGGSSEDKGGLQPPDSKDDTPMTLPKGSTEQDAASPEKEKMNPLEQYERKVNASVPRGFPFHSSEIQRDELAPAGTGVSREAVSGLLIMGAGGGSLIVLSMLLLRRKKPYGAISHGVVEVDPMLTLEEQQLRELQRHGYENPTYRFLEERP

In series [2] the target is Wild-type human APP695 (β-amyloid precursor protein), P05067.
The target of series [3] is Full-length APLP2 (APP-like protein 2), Q06481.
The target of series [4] is APP-C125 (C-terminal 125 amino acids of APP695), P05067.
The target of series [5] is APP D664A mutant (APP695), P05067.

Full-length APLP2 (APP-like protein 2), Q06481, sequence (Q06481 32-763): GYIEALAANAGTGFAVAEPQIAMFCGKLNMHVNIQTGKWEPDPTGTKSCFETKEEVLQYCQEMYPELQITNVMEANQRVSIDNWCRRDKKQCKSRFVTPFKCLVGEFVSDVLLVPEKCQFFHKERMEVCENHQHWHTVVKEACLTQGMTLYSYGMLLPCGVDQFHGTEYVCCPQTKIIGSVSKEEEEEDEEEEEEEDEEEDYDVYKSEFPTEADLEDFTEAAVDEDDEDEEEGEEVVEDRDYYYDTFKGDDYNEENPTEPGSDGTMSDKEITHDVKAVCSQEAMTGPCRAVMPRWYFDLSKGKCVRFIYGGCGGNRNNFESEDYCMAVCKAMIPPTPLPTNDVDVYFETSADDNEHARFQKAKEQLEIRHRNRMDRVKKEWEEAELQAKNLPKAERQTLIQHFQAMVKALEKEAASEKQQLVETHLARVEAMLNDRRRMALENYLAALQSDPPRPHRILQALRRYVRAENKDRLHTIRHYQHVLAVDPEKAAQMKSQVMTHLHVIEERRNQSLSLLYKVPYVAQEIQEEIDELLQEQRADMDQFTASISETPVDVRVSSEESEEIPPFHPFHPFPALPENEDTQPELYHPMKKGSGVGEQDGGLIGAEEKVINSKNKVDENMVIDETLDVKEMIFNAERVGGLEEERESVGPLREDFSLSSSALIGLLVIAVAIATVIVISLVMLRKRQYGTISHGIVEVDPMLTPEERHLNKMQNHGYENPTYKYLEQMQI

B1: Recombinant caspase-6 (protein)
chain: AFYKREMFDPAEKYKMDHRRRGIALIFNHERFFWHLTLPERRGTCADRDNLTRRFSDLGFEVKCFNDLKAEELLLKIHEVSTVSHADADCFVCVFLSHGEGNHIYAYDAKIEIQTLTGLFKGDKCHSLVGKPKIFIIQACRGNQHDVPVIPLDVVDNQTEKLDTNITEVDAASVYTLPAGADFLMCYSVAEGYYSHRETVNGSWYIQDLCEMLGKYGSSLEFTELLTLVNRKVSQRRVDFCKDPSAIGKKQVPCFASMLTKKLHFFPKSN
For B1, the “in vitro cleavage of 35S-labelled in vitro transcribed/translated protein” value in series [1] is “APLP1, on the other hand, was cleaved in vitro only by caspase-3, not by caspase-6 or -8”; in series [2] it was “APP can be cleaved by caspases-3 and -6, but not by caspase-8”; in series [3], “Like APLP1, APLP2 may be cleaved in vitro by caspase-3 only, but with very low efficiency, if at all”. In series [4], the “in vitro caspase cleavage” value is “caspases-3, -6 and -8 are capable of cleaving APP”.

B2: Recombinant caspase-8 (protein)
chain: SESQTLDKVYQMKSKPRGYCLIINNHNFAKAREKVPKLHSIRDRNGTHLDAGALTTTFEELHFEIKPHDDCTVEQIYEILKIYQLMDHSNMDCFICCILSHGDKGIIYGTDGQEAPIYELTSQFTGLKCPSLAGKPKVFFIQACQGDNYQKGIPVETDSEEQPYLEMDLSSPQTRYIPDEADFLLGMATVNNCVSYRNPAEGTWYIQSLCQSLRERCPRGDDILTILTEVNYEVSNKDDKKNMGKQMPQPTFTLRKKLVFPSD
Take B2: the “in vitro cleavage of 35S-labelled in vitro transcribed/translated protein” value in series [1] was “APLP1, on the other hand, was cleaved in vitro only by caspase-3, not by caspase-6 or -8”; in series [2], “APP can be cleaved by caspases-3 and -6, but not by caspase-8”; in series [3], “Like APLP1, APLP2 may be cleaved in vitro by caspase-3 only, but with very low efficiency, if at all”. The “generation of an APP-Neo-immunoreactive epitope by recombinant caspase in vitro” value (shortened to “generation”) in series [2] was “an APP-Neo-immunoreactive epitope was detected in immunoblots of in vitro transcribed/translated full length APP that had been incubated in the presence of recombinant caspase-3, but not caspase-7 or -8”; in series [5], “APPD664A, did not yield detectable APP-Neo immunoreactive products after incubation with recombinant caspase-3, -7 or -8”. In series [4], the “in vitro caspase cleavage” value was “caspases-3, -6 and -8 are capable of cleaving APP”.

B3: Recombinant caspase-7 (protein)
chain: AKPDRSSFVPSLFSKKKKNVTMRSIKTTRDRVPTYQYNMNFEKLGKCIIINNKNFDKVTGMGVRNGTDKDAEALFKCFRSLGFDVIVYNDCSCAKMQDLLKKASEEDHTNAACFACILLSHGEENVIYGKDGVTPIKDLTAHFRGDRCKTLLEKPKLFFIQACRGTELDDGIQADSGPINDTDANPRYKIPVEADFLFAYSTVPGYYSWRSPGRGSWFVQALCSILEEHGKDLEIMQILTRVNDRVARHFESQSDDPHFHEKKQIPCVVSMLTKELYFSQ
For B3, the “generation” value in series [2] was “an APP-Neo-immunoreactive epitope was detected in immunoblots of in vitro transcribed/translated full length APP that had been incubated in the presence of recombinant caspase-3, but not caspase-7 or -8”.

B4: Recombinant caspase-3 (protein)
chain: SGISLDNSYKMDYPEMGLCIIINNKNFHKSTGMTSRSGTDVDAANLRETFRNLKYEVRNKNDLTREEIVELMRDVSKEDHSKRSSFVCVLLSHGEEGIIFGTNGPVDLKKITNFFRGDRCRSLTGKPKLFIIQACRGTELDCGIETDSGVDDDMACHKIPVEADFLYAYSTAPGYYSWRNSKDGSWFIQSLCAMLKQYADKLEFMHILTRVNRKVATEFESFSFDATFHAKKQIPCIVSMLTKELYFYH
Turning to B4, the “generation” value in series [1] was “in vitro transcribed/translated APLP1 and APLP2 yielded APP-Neo immunoreactive cleavage products only when incubated in the presence of recombinant caspase-3”; in series [2], “an APP-Neo-immunoreactive epitope was detected in immunoblots of in vitro transcribed/translated full length APP that had been incubated in the presence of recombinant caspase-3, but not caspase-7 or -8”; in series [3], “in vitro transcribed/translated APLP1 and APLP2 yielded APP-Neo immunoreactive cleavage products only when incubated in the presence of recombinant caspase-3”. Moreover, the “in vitro cleavage of 35S-labelled in vitro transcribed/translated protein” value in series [1] is “APLP1, on the other hand, was cleaved in vitro only by caspase-3, not by caspase-6 or -8”; in series [2], “APP can be cleaved by caspases-3 and -6, but not by caspase-8”; in series [3], “APLP2 may be cleaved in vitro by caspase-3 only, but with very low efficiency, if at all”. Also, in series [4], the “in vitro caspase cleavage” value is “caspases-3, -6 and -8 are capable of cleaving APP”.
